The results in this text go back to the Human Domainome abundance scans (Beltran et al. 2025).

± gives the uncertainty stated by the source.

B1: Integrator complex subunit 12, residues 155 to 213; numbered along this chain, Q96CB8 (parent)
chain: AMEMGLACVVCRQMMVASGNQLVECQECHNLYHRDCHKPQVTDKEANDPRLVWYCARCT

This data set covers variants of B1. Briefly: abundance fitness (aPCA) (normalised: wild type 0, dead -1); higher = more abundant; growth selection in yeast, the domain comes from the species named. To be noted: Homo sapiens.
In the case of V52T, the abundance fitness was 0.034 ± 0.053.
The result for V52F reads -0.126 ± 0.064; that for V52L, -0.018 ± 0.044; that for V52D, 0.025 ± 0.061.
As for V52R, the abundance fitness is -0.032 ± 0.046.
With L6W the figure was -0.552 ± 0.066.
With L6I the figure was 0.007 ± 0.034; with L6G, -0.034 ± 0.033; with L6E, -0.106 ± 0.059.
With L6M the figure was 0.086 ± 0.053; with L6S, 0.073 ± 0.033; with L6A, 0.099 ± 0.038.
Regarding Q21S, the abundance fitness turned out to be 0.019 ± 0.035.
In the case of Q21R, the abundance fitness is 0.004 ± 0.045.
With Q21K the figure was -0.123 ± 0.067.
The result for Q21Y reads -0.117 ± 0.039; that for Q21D, -0.008 ± 0.041; that for Q21M, 0.079 ± 0.085.
As to Q21V, the abundance fitness was -0.068 ± 0.041.
The result for Q21N reads -0.056 ± 0.042.
For the variant Q21T, the abundance fitness was found to be 0.084 ± 0.057.
In the case of L22Q, the abundance fitness was -0.297 ± 0.12.
Turning to L22F, the abundance fitness was 0.014 ± 0.036.
With L22E the figure was -0.353 ± 0.097.
With L22T the figure was -0.084 ± 0.049; with L22V, -0.003 ± 0.039.
With L22I the figure was -0.036 ± 0.042.
As to Q13T, the abundance fitness was -0.089 ± 0.039.
Q13K: the abundance fitness is 0.011 ± 0.056.
The result for C8T reads -0.814 ± 0.058; that for C8M, -1.19 ± 0.11.
The result for C8Q reads -0.71 ± 0.076; that for C8I, -1.04 ± 0.063; that for K44I, 0.024 ± 0.082.
The result for K44A reads 0.008 ± 0.046; that for K44P, -0.076 ± 0.054; that for K44C, 0.059 ± 0.11.
Turning to K44R, the abundance fitness was -0.042 ± 0.043.
Consider K44L, for which the abundance fitness is -0.121 ± 0.049.
With K44Q the figure was -0.081 ± 0.072; with K44V, -0.038 ± 0.045; with A46G, -0.029 ± 0.038.
In the case of A46M, the abundance fitness was -0.201 ± 0.068.
Take A46V: the abundance fitness turned out to be 0.008 ± 0.043.
For the variant A46N, the abundance fitness is -0.082 ± 0.08.
The result for M2Y reads -0.127 ± 0.044.
As for M2D, the abundance fitness is -0.185 ± 0.044.
The result for M2T reads 0.073 ± 0.045.
With M2Q the figure was -0.058 ± 0.12.
With M2I the figure was 0.059 ± 0.04.
Take T42K: the abundance fitness was -0.01 ± 0.047.
The result for T42M reads -0.153 ± 0.051; that for T42Y, -0.165 ± 0.1; that for T42C, 0.069 ± 0.074.
With T42Q the figure was -0.064 ± 0.051.
In the case of T42H, the abundance fitness is -0.089 ± 0.069.
With T42I the figure was -0.281 ± 0.058; with S18K, 0.009 ± 0.056.
The result for S18I reads -0.129 ± 0.037; that for S18Q, 0.001 ± 0.062; that for S18P, 0.077 ± 0.055.
With S18H the figure was 0.014 ± 0.046.
On to S18C, for which the abundance fitness was -0.135 ± 0.035.
With E3L the figure was -0.321 ± 0.04; with E3H, -0.163 ± 0.039.
Turning to E3T, the abundance fitness was -0.137 ± 0.041.
With E3Y the figure was -0.222 ± 0.039.
Regarding E3R, the abundance fitness was -0.304 ± 0.037.
Regarding E3P, the abundance fitness is -0.359 ± 0.048.
In the case of E3F, the abundance fitness is -0.304 ± 0.038.
Turning to E3M, the abundance fitness was -0.232 ± 0.069.
For R34T, the abundance fitness worked out at 0.005 ± 0.064.
Take R34W: the abundance fitness is 0.143 ± 0.1.
As for H29N, the abundance fitness is -0.117 ± 0.036.
With G5R the figure was -0.058 ± 0.035; with G5L, -0.216 ± 0.038; with G5T, -0.045 ± 0.039.
G5Y: the abundance fitness is -0.267 ± 0.036.
The result for G5K reads 0.143 ± 0.053.
On to G5I, for which the abundance fitness is -0.205 ± 0.039.
For G5V, the abundance fitness is -0.13 ± 0.033.
With C28S the figure was -0.68 ± 0.034.
Take C28Q: the abundance fitness was -0.801 ± 0.08.
With C28L, the abundance fitness was -0.773 ± 0.048.
On to C28I, for which the abundance fitness is -0.954 ± 0.054.
With C28E the figure was -0.845 ± 0.075; with C28D, -0.576 ± 0.043; with C28H, -0.664 ± 0.047.
The result for C28A reads -0.616 ± 0.049; that for H33E, -0.483 ± 0.059.
With H33A, the abundance fitness was -0.609 ± 0.039.
With H33G, the abundance fitness is -0.668 ± 0.037.
With H33T the figure was -0.85 ± 0.057.
The result for H33C reads 0.013 ± 0.035; that for H33I, -0.873 ± 0.047; that for H33R, -0.638 ± 0.043.
As to H33L, the abundance fitness was -0.869 ± 0.044.
Regarding H33N, the abundance fitness is -0.584 ± 0.04.
With M14H the figure was -0.02 ± 0.11; with M14V, 0.06 ± 0.035; with D35Y, -0.074 ± 0.034.
D35W: the abundance fitness was -0.089 ± 0.044.
With D35T the figure was 0.023 ± 0.038; with D35G, 0.013 ± 0.033.
With D35R the figure was -0.029 ± 0.034; with A1C, -0.099 ± 0.12.
With A1F the figure was -0.161 ± 0.11; with C11D, -0.818 ± 0.064.
As for C11E, the abundance fitness was -0.782 ± 0.13.
On to C11Q, for which the abundance fitness is -1 ± 0.1.
With C11L the figure was -1.09 ± 0.057.
C11K: the abundance fitness was -0.761 ± 0.092.
With C11N the figure was -0.673 ± 0.04; with R50M, -0.028 ± 0.06.
Take R50E: the abundance fitness was 0.02 ± 0.056.
With R50L the figure was -0.068 ± 0.045; with R50C, -0.104 ± 0.12; with R50Q, -0.059 ± 0.061.
For R50D, the abundance fitness was -0.017 ± 0.091.
The result for L31I reads 0.01 ± 0.036.
Regarding L31R, the abundance fitness was 0.091 ± 0.034.
In the case of L31G, the abundance fitness was -0.048 ± 0.03.
As for L31F, the abundance fitness was 0.075 ± 0.034.
The result for L31A reads 0.04 ± 0.033.
With L31C the figure was 0.047 ± 0.035; with K38Q, -0.015 ± 0.054.
The result for K38E reads 0.008 ± 0.046; that for K38W, -0.341 ± 0.055.
Take K38R: the abundance fitness was -0.028 ± 0.04.
With K38V the figure was 0.035 ± 0.046; with H37F, -0.226 ± 0.033.
With H37A, the abundance fitness was -0.048 ± 0.035.
With H37G the figure was -0.148 ± 0.033; with H37N, -0.144 ± 0.035; with H37W, -0.297 ± 0.058.
With H37K the figure was -0.379 ± 0.069; with H37E, -0.223 ± 0.08; with H37P, -0.645 ± 0.054.
Consider H37V, for which the abundance fitness is -0.075 ± 0.032.
With A17C the figure was -0.048 ± 0.038; with A17N, 0.001 ± 0.039.
As for A17S, the abundance fitness amounted to 0.006 ± 0.035.
As to A17P, the abundance fitness worked out at 0.005 ± 0.061.
In the case of Q40T, the abundance fitness was 0.02 ± 0.063.
Q40C: the abundance fitness was determined as 0.148 ± 0.062.
Take Q40V: the abundance fitness is -0.063 ± 0.041.
With Q40N, the abundance fitness came out at 0.051 ± 0.075.
The result for Q40M reads -0.112 ± 0.064; that for Q40A, -0.002 ± 0.043.
On to Q40P, for which the abundance fitness was -0.009 ± 0.051.
The result for Q40H reads -0.055 ± 0.093; that for Q40G, 0.001 ± 0.037; that for N20E, -0.007 ± 0.075.
For N20R, the abundance fitness is -0.045 ± 0.038.
With N20I the figure was -0.089 ± 0.035.
The result for N20C reads -0.098 ± 0.035; that for N47V, -0.066 ± 0.048.
As to N47F, the abundance fitness was -0.162 ± 0.052.
For N47E, the abundance fitness is -0.005 ± 0.054.
With N47G the figure was 0.02 ± 0.053.
Take N47H: the abundance fitness is 0.011 ± 0.073.
In the case of N47C, the abundance fitness is -0.013 ± 0.095.
For the variant N47M, the abundance fitness is -0.105 ± 0.056.
As for Y32T, the abundance fitness was -0.263 ± 0.044.
With Y32E the figure was -0.388 ± 0.068; with Y32F, 0.003 ± 0.035.
Y32Q: the abundance fitness is -0.3 ± 0.067.
